Results on nine molecules are retold here after patent publication US20090148400A1 (IMMATICS BIOTECHNOLOGIES GMHH, published 2009).

Where no end group is shown, it is not given here.

In the first test the target is T1, recombinant HLA-A*0201 molecule (HLA-A*0201 heavy chain refolded with beta-2 microglobulin) (human). The test is described as follows: ELISA-based HLA refolding assay.
Procedure: (§1) The amount of de novo-folded HLA/peptide complexes was determined by a quantitative ELISA. Dissociation constants (KD values) were calculated using a standard curve recorded from dilutions of a calibrant HLA/peptide complex.
ALSNLEVTL (also: acetate salt) [IMA-C20-001]: the binding result is listed as “binds”.
On the same count and under the same terms, the value for YVDPVITSI [IMA-MET-001] was “binds”.
On the same count and under the same terms, the value for LLGATCMFV [IMA-CCN-001] was “binds”.
In the case of KLMDLDVEQL [IMA-PCN-001], the binding result is “binds”.
The same measure, in the same setting: the value for KIFDEILVNA [IMA-TOP-001] was “binds”; that for ILAPVILYI [IMA-NOX-001] was “binds”.

The target of the next test is T1, recombinant HLA-A*0201 molecule …. The test is described as follows: remark on making pMHC monomers for in vitro stimulation.
Regarding STAPPVHNV [IMA-MUC-001], the binding result was “binds”.

The next test has the same target. As to the kind of experiment: ELISA-based HLA refolding assay: recombinant HLA-A*0201 heavy chain with b2m and graded doses of peptide. For orientation: In an ELISA, binding on a coated surface is turned into a signal by an enzyme label.
Procedure: as §1
One may read the Kd as the free concentration of one partner at which half of the binding sites on the other are occupied at equilibrium, for simple one-to-one binding. For ALFVRLLALA [IMA-TGFBI-001], the Kd came to 0.001 nM.
On the same count and under the same terms, the value for ILDQKINEV [IMA-ODC-001] was 0.2 nM.
